Conditions: Bos taurus; pH 8.5; Thermal; CD; Glycine; reversible: YES; whole UniProt chain shown

B1: Adrenodoxin, mitochondrial wild type, P00257 (protein)
chain: MAARLLRVASAALGDTAGRWRLLARPRAGAGGLRGSRGPGLGGGAVATRTLSVSGRAQSSSEDKITVHFINRDGETLTTKGKIGDSLLDVVVQNNLDIDGFGACEGTLACSTCHLIFEQHIFEKLEAITDEENDMLDLAYGLTDRSRLGCQICLTKAMDNMTVRVPDAVSDARESIDMGMNSSKIE
In the case of B1, the Tm is reported as 51.9 °C.

Source: FireProtDB (doi:10.1021/bi020450z)
